Data: the RNAGym collection of RNA variant scans (doi:10.7554/elife.80360)

B1: CPEB3 Ribozyme (parent)
chain: GGGGGCCACAGCAGAAGCGUUCACGUCGCGGCCCCUGUCAGAUUCUGGUGAAUCUGCGAAUUCUGCUGU

Variants of: B1
Test: self-cleavage, relative activity (ratio to wild type); higher = more cleavage; co-transcriptional

Variant	self-cleavage
GGAGGCCACAGCAGAAGCGUUCACGUCGCGGCCCCUGUCAGAUUCUGGUGAAUCUGCGAAUUGUGCUGU [G3A C63G]	0.317
GGAGGCCACAGCAGAAGCGUUCACGUCGCGGCCCCUGUCAGAUUCUGGUGAAUCUGCGAAUUCUGAUGU [G3A C66A]	0.442
GGAGGCCACAGCAGAAGCGUUCACGUCGCGGCCCCUGUCAGAUUCUGGUGAAUCUGCGAAUUCUGGUGU [G3A C66G]	0.597
GGAGGCCACAGCAGAAGCGUUCACGUCGCGGCCCCUGUCAGAUUCUGGUGAAUCUGCGAAUUCUGUUGU [G3A C66U]	0.724
GGAAGCCACAGCAGAAGCGUUCACGUCGCGGCCCCUGUCAGAUUCUGGUGAAUCUGCGAAUUCUGCUGU [G3A G4A]	0.204
GGACGCCACAGCAGAAGCGUUCACGUCGCGGCCCCUGUCAGAUUCUGGUGAAUCUGCGAAUUCUGCUGU [G3A G4C]	0.165
GGAUGCCACAGCAGAAGCGUUCACGUCGCGGCCCCUGUCAGAUUCUGGUGAAUCUGCGAAUUCUGCUGU [G3A G4U]	0.0692
GGAGACCACAGCAGAAGCGUUCACGUCGCGGCCCCUGUCAGAUUCUGGUGAAUCUGCGAAUUCUGCUGU [G3A G5A]	0.101
GGAGUCCACAGCAGAAGCGUUCACGUCGCGGCCCCUGUCAGAUUCUGGUGAAUCUGCGAAUUCUGCUGU [G3A G5U]	0.0857
GGAGGCCACAACAGAAGCGUUCACGUCGCGGCCCCUGUCAGAUUCUGGUGAAUCUGCGAAUUCUGCUGU [G3A G11A]	0.48
GGAGGCCACACCAGAAGCGUUCACGUCGCGGCCCCUGUCAGAUUCUGGUGAAUCUGCGAAUUCUGCUGU [G3A G11C]	0.33
GGAGGCCACAUCAGAAGCGUUCACGUCGCGGCCCCUGUCAGAUUCUGGUGAAUCUGCGAAUUCUGCUGU [G3A G11U]	0.402
GGAGGCCACAGCACAAGCGUUCACGUCGCGGCCCCUGUCAGAUUCUGGUGAAUCUGCGAAUUCUGCUGU [G3A G14C]	0.159
GGAGGCCACAGCAGAAACGUUCACGUCGCGGCCCCUGUCAGAUUCUGGUGAAUCUGCGAAUUCUGCUGU [G3A G17A]	0.0767
GGAGGCCACAGCAGAACCGUUCACGUCGCGGCCCCUGUCAGAUUCUGGUGAAUCUGCGAAUUCUGCUGU [G3A G17C]	0.0537
GGAGGCCACAGCAGAAUCGUUCACGUCGCGGCCCCUGUCAGAUUCUGGUGAAUCUGCGAAUUCUGCUGU [G3A G17U]	0.0783
GGAGGCCACAGCAGAAGCAUUCACGUCGCGGCCCCUGUCAGAUUCUGGUGAAUCUGCGAAUUCUGCUGU [G3A G19A]	0.105
GGAGGCCACAGCAGAAGCCUUCACGUCGCGGCCCCUGUCAGAUUCUGGUGAAUCUGCGAAUUCUGCUGU [G3A G19C]	0.0671
GGAGGCCACAGCAGAAGCUUUCACGUCGCGGCCCCUGUCAGAUUCUGGUGAAUCUGCGAAUUCUGCUGU [G3A G19U]	0.092
GGAGGCCACAGCAGAAGCGUUCACUUCGCGGCCCCUGUCAGAUUCUGGUGAAUCUGCGAAUUCUGCUGU [G3A G25U]	0.054

Variant	self-cleavage
GGAGGCCACAGCAGAAGCGUUCACGUCACGGCCCCUGUCAGAUUCUGGUGAAUCUGCGAAUUCUGCUGU [G3A G28A]	0.113
GGAGGCCACAGCAGAAGCGUUCACGUCCCGGCCCCUGUCAGAUUCUGGUGAAUCUGCGAAUUCUGCUGU [G3A G28C]	0.0675
GGAGGCCACAGCAGAAGCGUUCACGUCUCGGCCCCUGUCAGAUUCUGGUGAAUCUGCGAAUUCUGCUGU [G3A G28U]	0.104
GGAGGCCACAGCAGAAGCGUUCACGUCGCAGCCCCUGUCAGAUUCUGGUGAAUCUGCGAAUUCUGCUGU [G3A G30A]	0.181
GGAGGCCACAGCAGAAGCGUUCACGUCGCCGCCCCUGUCAGAUUCUGGUGAAUCUGCGAAUUCUGCUGU [G3A G30C]	0.103
GGAGGCCACAGCAGAAGCGUUCACGUCGCGACCCCUGUCAGAUUCUGGUGAAUCUGCGAAUUCUGCUGU [G3A G31A]	0.224
GGAGGCCACAGCAGAAGCGUUCACGUCGCGCCCCCUGUCAGAUUCUGGUGAAUCUGCGAAUUCUGCUGU [G3A G31C]	0.122
GGAGGCCACAGCAGAAGCGUUCACGUCGCGGCCCCUAUCAGAUUCUGGUGAAUCUGCGAAUUCUGCUGU [G3A G37A]	0.143
GGAGGCCACAGCAGAAGCGUUCACGUCGCGGCCCCUUUCAGAUUCUGGUGAAUCUGCGAAUUCUGCUGU [G3A G37U]	0.0837
GGAGGCCACAGCAGAAGCGUUCACGUCGCGGCCCCUGUCAAAUUCUGGUGAAUCUGCGAAUUCUGCUGU [G3A G41A]	0.222
GGAGGCCACAGCAGAAGCGUUCACGUCGCGGCCCCUGUCAUAUUCUGGUGAAUCUGCGAAUUCUGCUGU [G3A G41U]	0.277
GGAGGCCACAGCAGAAGCGUUCACGUCGCGGCCCCUGUCAGAUUCUCGUGAAUCUGCGAAUUCUGCUGU [G3A G47C]	0.658
GGAGGCCACAGCAGAAGCGUUCACGUCGCGGCCCCUGUCAGAUUCUUGUGAAUCUGCGAAUUCUGCUGU [G3A G47U]	0.682
GGAGGCCACAGCAGAAGCGUUCACGUCGCGGCCCCUGUCAGAUUCUGAUGAAUCUGCGAAUUCUGCUGU [G3A G48A]	0.69
GGAGGCCACAGCAGAAGCGUUCACGUCGCGGCCCCUGUCAGAUUCUGUUGAAUCUGCGAAUUCUGCUGU [G3A G48U]	0.722
GGAGGCCACAGCAGAAGCGUUCACGUCGCGGCCCCUGUCAGAUUCUGGUAAAUCUGCGAAUUCUGCUGU [G3A G50A]	0.645
GGAGGCCACAGCAGAAGCGUUCACGUCGCGGCCCCUGUCAGAUUCUGGUGAAUCUACGAAUUCUGCUGU [G3A G56A]	0.26
GGAGGCCACAGCAGAAGCGUUCACGUCGCGGCCCCUGUCAGAUUCUGGUGAAUCUUCGAAUUCUGCUGU [G3A G56U]	0.467
GGAGGCCACAGCAGAAGCGUUCACGUCGCGGCCCCUGUCAGAUUCUGGUGAAUCUGCUAAUUCUGCUGU [G3A G58U]	0.701
